Protease stability score data for 34 sequences are collected here from the NTF2 design screens of Basanta et al. (2020).

The data set in a line: protease stability score; higher = more stable; yeast display proteolysis, trypsin and chymotrypsin.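 Further: log10 excess protease needed over predicted unfolded state with 0 meaning unfolded.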
“DEEEEARKFVKTAQDKARQGNEDQLQNMADKDARVEVGDKVIHGRNEAVKTRREENKRYDRVHNDVQHITLRPGQITIRMRVHVEHNGQRRHREFVFVMHNNNGEWHVEFVEVK” registered a protease stability score of -0.045. The sequence “DEEDLKEFVKILKEGDPEKLKKMVDENVTIEIGDKRVSGKEKARDLAENFRERVDSHHIHRVDIEGERMVVDVEVSVNGRRIRYTLFAEVHNGKLKQQSVQYTSEEQRKLLTEMWT” displayed a protease stability score of 0.3.

Take “DEEQRKRMAEKFRNAIQRNDDDKIRELAPPDVSARYGDKEVHGREELLKYIDRLHKEADRIDVHDLHVKGETIILTLVVNINGHNHRYNFVAHIHDGRMHRMKVESR”: the protease stability score came to 1.21.

“DEKEAQKLLEKIAKTMKNGDTETAKKLGKDDVEVKYADDEHHGPDAIKKMLEKLKKLGLEVEYKEIHVEGDTVRVKVQVHHGGTTAHMEVEYQARGRKVDNMRVKYDERAKKLIKHG” returned a protease stability score of 0.471. With “DEKRQAKEYVKHFDEVIETNDPDQLNELMDKDVRLDIGETKVSGRDDAKKWAKELVDQIDHVRVNVRKVDVQGDTIKVEVDIQIQYNGRHEQRVLHFTAVLSNGRAKIKRFTVE”, the protease stability score was found to be 0.559. Next, “DEEKNKKIARSLFQVFRTGDENRAQDMADENATARVGDKSVHGKEEFRKFVQEFLRQVDHMDVQEYRVRGNRINIIAVIHHNGQRLKVVITIVLHNGRIVHMVIRYTNPSQWKRVMS”: 0.597; “DEKVHKIFEHYMTAVNRNNPDRAMRQVDPNAHVEVGDRQISGRENLRETVEKLNKHARINYRDFDAELHGDKVNVDLDIRMEYNGKPYSDHVIIIFRAQGDKIKHMTNDIDPDVEHHFEQ”: 0.081; “EEEQLKTVKQWQENEKTGNEEELKKQADPNAKFRIGDHEVRGMENYAHDVIRRVKDARVDYETISHDVNGDRVVIRAVYRMNHNGRPSSYEYTVHYEMHNGKMKNVTVNKRQ”: 0.041. Turning to “DDEFLKKVVEVIRHGDEERLVRNFDENARMRIGDKVFHGREEIKKALHRIREHADHIDVESVDQQGDTLDADVFIEVNGKNWVFKLKVTVHNGRIKEVSWHVRDEDADNIMKEIMS”, the protease stability score came to 1.8. With “DENEMVQLARKLARVLETNDSDKMREMIPPDASIEIGDRRLHGRESVEHLMKDMHKRIDHLTVDSVNVDNGRVHISARAKHNGRTRRVQFYALIHNGRIHVISFRTK” the figure was 1.34; with “DHKEHAEKFAQQLDEAHKKNDPRQFLRLMDKDVRVSVGDKTVHGKENIRKQLEDLTKQADSIEFKVKSIRVTGDKVRLEFEVVYRHNGRHSRQTVVMYLKLHNGRAVIKSVQVK”, 0.159; with “DERKKVEDVARHWVEAFKEGDKDRLTSLMDENVTVKVGDKQVHGSEELLEDMTNKIKQHDHVDAKILSVTFHGDEAEVDVEVRLNHNGKNRHDRYVMVMRVHNGTLRLKKLTQK”, 1.24. The sequence “DHERVKDHATDLAKILRQNNERELKKLADKDVHFQIGDKTYHGREKFEEWVHELINTVDHIRITDFDVDGDRVRIDADFDINGKTVRVVIVVKLKNGKIKSQKVQFRDKDLQRKFNS” gave a protease stability score of -0.152. “DDHSSARKFADEFREMMKTGDSTKADELFDPNVRVEVGDKRYHGREQAVDWIRHLVDRYDHIEIRIDHITVRGDRISIVFTVHYEKNGETTYDRYVMVAVDRNGRAQIKMLRKG” returned a protease stability score of 2.51.

“DDENVEIAEKIVKAEQSGDEDHLRELADPNARFHVGDKHVSGMEKFLKDFQHEFEELRFSIKVTSVTQSNGKVHMTATATRHRNGRPDSFTANRRFLFHNGKAKEVSQDNRK” had a protease stability score of -0.352. Take “DKEASDHATRIAQTNNPQKAVDKADPDVKATYGNKVYNGKNQARDVAKQFDEHFDRVEVKSVDNDGETVRADVRARFNGKTMEFTFVIVMSNGHVKMLFIDVRNPEDQEDLDRLLT”: the protease stability score is -0.188. On to “DDQEVKKLAHEVQKILEHGDPDQFADLFDKDARMTVGDKDLHGRERIRELAQRQQDRIDHVQLEEYQVHNGRVVLKMRVNVNGHDETINMTLHQRNGKVKEFTQQSR”, for which the protease stability score stood at 0.071.

Consider “DEDLARRLAEEMVKKATHGDEDTVRELIDPNVKFRYGDKDVEGRENFATELAEDMRTADHVHLKQVTIRGDTVQIDMRMVFDGSEDRHDLRLRAHNGKVQEVTIDQG”, for which the protease stability score is -0.112.

As to “DEDLQKQAERFLHAVNTGNEEQIHRLVDKDARMQYGDRRVHGRERIATWYRQMKEEIRQDIEVRTVRVRNGRVEVDARVERHVNGRPIDNKFHMSIQIENGKVKSITAHLDPNVLQEIKR”, the protease stability score came out at 1.17. With “DDDQRKDYERFLRWQEENDPRKVAEQADPNARFRYGDKHVQGREEQSRRFDEQRKDARWDLDIKRVNVEGNKITVHFKMQMDRNGKPDSRDATRTIEYDNGRIQRDEVKVSS”, the protease stability score is -0.231. Next, “DERQNERFETLVKAIEEGDEDEAREQMDPNVRIEVGDKVIHGMDEFADTVRRTREELRVEFKIKRLRIKNGQVDVEMHVTFDHNGEPETARMVIKVNAHNGKIKNVVMRIHK”: 1.6.

The sequence “DETEEVQKLVHRWRQAMEDGNPDDLRKNMDEDAEMRYGDKSWHGRENIAQNLHKERQRADSISITIEDMDHENGKAVVHLNITFTVNGRKETKRYDLDVEVNGDKLKIKQIQQE” returned a protease stability score of 0.247. “DEEAEKELRKMFQNENKGNPNEVMKQFDKHARVKVGEKEIRGRHQVHNYVDHVRKEMRRQIDSMSLEVHGNKLIVHITYVADINGHPVRVQVQYIIQFHNGKIKEVKVKIDEDEKRRMDQ”: the protease stability score was 0.385.

“DEEHARTFMEEWQKAVQKGDHKRAQEIYKPNVEWVAGDKQTQGTDVVREMLEKAQKMGVEFQVRRAEVEGNKVRFQYDVRHGNETVTFHVEVTVQGGKIDRVQVKFDEKAQKVQKEG”: the protease stability score came out at 1.07. With “DEEAEKLAREFIKAVQTGDEEELNELMDPNARFRIGNKTFHGMTNAAKEFNDKRREAHIEYHITSIRVSGDHVEVKVEVHVNVNGKPVHNEVTMDFKRHNGRIRDFQVQIDEEDQKKQDK”, the protease stability score was 1.29. For the sequence “EDRDKVRRAIKRMLDVMSTGDEDKLREYADENVKINVGDKDVHGREEAARFLKTHADQYDHIDQRIQDVKKENGQVEVRREMEATHNGHTHRDREHIVVEIRGDNMKIKSIQRQ”, the protease stability score was -0.409. “DEDAQTQVEKMLKNMQRGDNQEVNKMFDKNVEFRVGDRDIHGREEYARQVSREHKESRVEFRHIHARVKGDHVRIRVDVVRQVNGKPQRMTVEFEVQAHNGKIKRFQVEFDPDEERRVQK” displayed a protease stability score of 0.196.

Sequence “EEEVSKRAREFVEAYQTGNEDKMHRLVDENADAQYGDKHIHGMTEIKRHVKRLTEEIRVQVESMDVKANNGHVRVRVHLVLHINGNPIDVTVIIVMRFKNGTIRSVQFRMPEEARDTIRK” showed a protease stability score of -0.077. Next, “DQEVAETMMERWQKAVQKGDPKEVQEVYDPNVTWKDVDEEHQGKEQVVKQMRKVQKQGIEFQIRRAEVEGDRAQAVYDVKLGNLTVTFTVEMTVRGGRVQEVRVEMDEEAKKLVKKG”: 0.136; “DEEKMEDFVRKLRTGDPKQMHDNVDKDATLTIGDKKWHGRERVATAIRKWLHRADHVRIDRYDIDGDHVRIDARVTFNGKNLKVVLEYRIHNGKVKSVVLKVTSTEVQRQIDKLLS”: 1.37; “DEEEMEKVLQVQSTGNPDRYRKLADKDVRLVVGDTEVQGKEKVVKKVHDFHKQIDHQDYESMSAEGNRIDVLLRNVVNGQELVLRVVVRVHNGRIKEVELRARSEEEQSRFDHAWK”: 0.093. “EHELERQASKFAQLLRTNDFEKLLEMFDENARIEVGDKFVQGRDRIKKKLERDKTEMNRRYEDIKFTANGNTLNIKVIFTENHNGKPKRTVQLILITFRNGRIKRVEVRDDG” gave a protease stability score of -0.065.

“DEDKRAREAAETAIQALRTGDPDKMVKLMDPNARVRVGDKTVTGHEEIRRWMQTIQDQIDHADITVESLTVNNGRAELIFVANFDRNGRTERTRYNLEIDVRGDKVQAHQMDHG” yielded a protease stability score of 1.22. Next, “DENELLKTFMDIFRRAIKTGDEKLLRTMMDKDVKARVGDKDVHGREEADKEFKKIWDHADHVDIKVKEVTINGDKAHVTMDAKFVVDGKSQKVNIHVKAEVKNGRLKAKHITMG”: 2.03.
